Consider two molecules from US5856161, “Tumor necrosis factor receptor-I-associated protein kinase and methods for its use” (Research Development Foundation, dated 1999).

One assay concerns the target cdk4 (human, UniProt P11802). As to the kind of experiment: precipitation of U937 cell extracts with p13^suc1 -agarose, immunoblot.
In a further assay the target is cdk2 (human (endogenous, U937 cells); not …, UniProt P24941). As to the kind of experiment: in vitro translated 35S-labelled protein, pull-down with GST-p80CD on glutathione agarose. How it is done: (§1) U937 cells lysates (15×10⁶/assay) were prepared and affinity precipitated with the indicated fusion protein as described below. Whole cell extracts were prepared from 2×10⁶ U937 cells by boiling the cells in 100 μl of SDS-sample buffer. Proteins were resolved by 8.5% SDS-polyacrylamide gel electrophoresis, transferred to PVDF membrane, and probed with the indicated antibodies. The mock reaction contains GST-p60Δ8 without U937 cell lysates. […] The samples were subjected to 8.5% SDS-polyacrylamide gel electrophoresis and analyzed by a PhosphorImager. Ten percent of total ^35S-labeled protein (10% input) added to each binding reaction was loaded as a standard. […] The conditions utilized for this experiment were similar to those previously described (Dyson et al., 1989). Briefly, U937 cells were either treated without or with 0.1 nM TNF for 5 minutes. […] Precipitates bound to protein A/G sepharose beads were collected by centrifugation and washed four times in lysis buffer and one time in kinase buffer. The samples were subjected to 8.5% SDS-polyacrylamide gel electrophoresis and analyzed by a PhosphorImager and ImageQuant software.

Another assay has as its target cdc2 (human, UniProt P06493). Described as above. How it is done:
as §1

Procedure for cdk4: U937 cells (4×10^6) were lysed and precipitated with p13^suc1 agarose. Beads were collected by centrifugation, washed with lysis buffer, and boiled in the presence of SDS-sample buffer. […] Immunoreactive bands were detected using horseradish peroxidase-conjugated secondary antibodies and the Enhanced Chemiluminescence system (ECL). […] Equal amounts of U937 cell lysates were incubated with 25 μg of either GST bound to glutathione agarose (−) or p13^suc1-agarose (+) for 1 hour at 4° C. with shaking. The beads were collected by centrifugation, and the supernatant was once more centrifuged. An equal volume of the supernatant was affinity precipitated with GST-p60Δ15. The precipitates were washed extensively, and in vitro kinase assays with histone H1 (5 μg) were performed as described below. Proteins were separated by 8% SDS-polyacrylamide gel electrophoresis and analyzed by a PhosphorImager and ImageQuant software. […] Equal amounts of U937 cell lysates were incubated with either GST bound to glutathione agarose (−) or p13^suc1-agarose (+) for 1 hour at 4° C. with shaking. The beads were collected by centrifugation, and the supernatant was once more centrifuged. An equal volume of the supernatant was affinity precipitated with either GST-p60Δ8 or GST-p60Δ15. The precipitates were washed extensively, and in vitro kinase assays with Rb^110 (0.2 μg) were performed as described below.

B1: p13^suc1 -agarose (other)
chain: SKSGVPRLLTASERERLEPFIDQIHYSPRYADDEYEYRHVMLPKAMLKAIPTDYFNPETGTLRILQEEEWRGLGITQSLGWEMYEVHVPEPHILLFKREKDYQMKFSQQRGG
With B1, the binding result with cdk4 is “no binding”.

B2: GST-p80CD (receptor)
chain: KKKPLCLQREAKVPHLPADKARGTQGPEQQHLLITAPSSSSSSLESSASALDRRAPTRNQPQAPGVEASGAGEARASTGSSDSSPGGHGTQVNVTCIVNVCSSSDHSSQCSSQASSTMGDTDSSPSESPKDEQVPFSKEECAFRSQLETPETLLGSTEEKPLPLGVPDAGMKPS
With B2, the binding result with cdk2 and with cdc2 was “no binding” each time.
